Assay: yeast display, Sf9 membrane polyspecificity reagent, FACS + sequencing; frameworks hold sequencing errors
Summary of the method: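 Nanobodies came from a synthetic yeast display library in Saccharomyces cerevisiae BJ5465, induced with galactose for 36–48 hours and stained for 1 hour at 4 °C with 10% biotinylated, detergent-solubilized Sf9 membrane reagent. Cells were enriched on streptavidin microbeads and then FACS-sorted, with low and high (top ~1%) gates set on anti-HA fluorescence for expression and streptavidin fluorescence for reagent binding. Each polyreactivity label reflects the gate a clone came from. Genes were amplified by colony PCR, sequenced by MiSeq 2 × 250 and filtered by CDR length.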

Sequence	polyreactivity (PSR sort gate)
QVQLVESGGGLVQAGGSLRLSCAASGRIFVWNVMGWYRQAPGKERELVAAITYSGDTTYYADSVKGRFTISRDNAKNTVYLQMNSLKPEDTAFYYCAAVRRGGGVKYDYWGQGTQVTVSS	high polyreactivity
QVQLVESGGGLVQAGGSLRLSCAASGRIFVYNAMGWYRQAPGKERELVAAITRGGSTYYADSVKGRFTISRDNAKNTVYLQMNSLKPEDTAVYYCASDYQRNDFRWYDYWGQGTQVTVSS	low polyreactivity
QVQLVESGGGLVQAGGSLRLSCAASGRIFVYNVMGWYSQAPGKERELVAAISWGTGSTYADSVKGRFTISRANAKNSVYLQMNSLKPEDTAVYYCAADSFIPPYDHWGQGTQVTVSS	low polyreactivity
QVQLVESGGGLVQAGGSLRLSCAASGRIFVYYAMGWYRQAPGKERELVASISYSGASTYYADSVKGRFTISRDNAKNTVYLQMYSLKPEDTAVYYCNTDGDDFFHVIYDYWGQGTQVTVSS	low polyreactivity
QVQLVESGGGLVQAGGSLRLSCAASGRIFVYYAMGWYRQAPGKERELVATITSSDITNDADSVKGRFTISCDNAKNTVYLQMNSLKPEDTAVYYCARDYYVYSSGHVPLDYWGQGTQVTVSS	low polyreactivity
QVQLVESGGGLVQAGGSLRLSCAASGRIFVYYTMGWYRPAPGKERELVAAIRSSGGSTYADSVKGRFTISRDNAKNTVSLQMNSLKPEDTAVYYCNAGYRSWQYRSGLYGDYNYWGQGTQVTVSS	high polyreactivity
QVQLVESGGGLVQAGGSLRLSCAASGRIFVYYVMGWYRQAPGKERELVAAITYSGGSTYYADSVKGRFTISRDNAKNTVYLQMNSLKPEDTAVYYCNKVDAFGIVRLYYWGQGTQVTVSS	low polyreactivity
QVQLVESGGGLVQAGGSLRLSCAASGRIFWAYAMGWYRQAPGKERELVADITSGGSTYYADSVKGRFTISRDNAKNNVYLQMNSLKPEDTAVYYCAVGSKWVDDSPEDEYWGQGTQVTVSS	low polyreactivity
QVQLVESGGGLVQAGGSLRLSCAASGRIFWDNAMGWYRQAAGKEWELVAAISDSVVITYYADSVKGRFTISRDNAKNTVYLQMNSLKPEDTAVYYCAADKRGTVYLSSLWMDYWGQGTQVTVSS	low polyreactivity
QVQLVESGGGLVQAGGSLRLSCAASGRIFWDYAMGWYRQAPGKERELVAVITFSGDSTYYADSVKGRFTISRDYAKNTVYLQMNSLKPEDTAVYYCAAARAIRQFWYVATFEYWGQGTQVTVSS	low polyreactivity
QVQLVESGGGLVQAGGSLRLSCAASGRIFWEYAMGWYRQAPGKERELVAAITWRVGSTYYADSVKGRFTISRDNAKNTVYLQMNSLKPEDTAVYYCVARSQSIRYTYIRSYYWGQGTQVTVSS	low polyreactivity
QVQLVESGGGLVQAGGSLRLSCAASGRIFWFYTMGWYRQAPGKERELVARITTSGGSTYYADSVKGRFTISRDNAKNTVYLQMNSLKPEDTAVYYCAARPRDYHSFSLDYYYWGQGTQVTVSS	high polyreactivity
QVQLVESGGGLVQAGGSLRLSCAASGRIFWGNAMGWYRQAPGKEREFVAGITGIGGRTYYADSVKGRFTISRDNAKNTVYLQMNSLKPEDTAVYYCARTWAVSYGYAMDYWGQGTQVTVSS	low polyreactivity
QVQLVESGGGLVQAGGSLRLSCAASGRIFWGYDMGSYRQAPGKQTEFVAAISSGGGRTYYADSVKGRFTISRDNAKNPVYLPMNSLKPEDTAVYYCNAELNWYYYIHLDYWGQGTQVTVSS	low polyreactivity
QVQLVESGGGLVQAGGSLRLSCAASGRIFWGYTMGWYRQAPGKERELVAAITFRGATTYYADSVKGRFTISRDNAKNTVYLQLNSLKPEDTAVYYCAKRGYASGSKWDYGYWGQGTQVTVSS	high polyreactivity
QVQLVESGGGLVQAGGSLRLSCAASGRIFWGYVMGWYRQAPGKERELVAAISSGGDTHYADSVKGRFTISRDNAKNTVYLQMNSLKPEDTAVYYCAKENQYYDSKVAGVLTGLYDYWGQGTQVTVSS	low polyreactivity

Sequence	polyreactivity (PSR sort gate)
QVQLVESGGGLVQAGGSLRLSCAASGRIFWHNAMGWYRQAPGKERELVAAITGGGSTYYADSVKGRFTISRDNAKNTVYLQMNSLKPEDTAVYYCATLGSLRYYWPGYDYWGQGTQVTVSS	low polyreactivity
QVQLVESGGGLVQAGGSLRLSCAASGRIFWHNAMGWYRQAPGTERELVAAITGGGSTYYADSVKGRFTISRDNAKNTVYLQMNSLKPEDTAVYYCATLGSLRYYWPGYDYWGQGTQVTVSS	low polyreactivity
QVQLVESGGGLVQAGGSLRLSCAASGRIFWHYAMGWYRQAPGKERELVAAISSRGGSTYYADSVKGRFTISRDNAKNTVYLQMNSLKPEDTAVYYCAADRVDGGSYYHSGYWGQGTQVTVSS	high polyreactivity
QVQLVESGGGLVQAGGSLRLSCAASGRIFWLYAMGWYRQAPGKERELVAAITGIGGSTYYADSVKGRFTISRDNAKNTVYLQMNSLKPEDTAVYYCAARYPATYPSMGYWGQGTQVTVSS	low polyreactivity
QVQLVESGGGLVQAGGSLRLSCAASGRIFWPYARGWYRPAPGKERELVAAITSGGSTYYADSVKGRFTISRDNAKNTVYLQMNSLKQEDTAVYYCAKLSSGVSVPVAYGGIKRYNSWGQGTQVTVSS	low polyreactivity
QVQLVESGGGLVQAGGSLRLSCAASGRIFWQYAMGWYRQAPGKERELVAGITYRGGSTYYADSVKGRFTISRDNAKQTVYLLMNSLKPEDTAVYYCAADTYLSSQYSDRYGYDYWGQGTQVTVSS	high polyreactivity
QVQLVESGGGLVQAGGSLRLSCAASGRIFWRNTMGWYRQAPGKERELVAAITRTGGSTYYADSVKGRFTISRDNAKNTVYLQMNSLKPEDTAVYYCAAQQHYGDGYWGQGTQVTVSS	high polyreactivity
QVQLVESGGGLVQAGGSLRLSCAASGRIFWRYAMGWYRQAPGKERELVAAITSGGNTYYADSVKGRFTISRDNAKNTVYLQMNSLKPEDTAVYYCATVFSVQGWYFGMNYWGQGTQVTVSS	low polyreactivity
QVQLVESGGGLVQAGGSLRLSCAASGRIFWRYAMGWYRQAPGKERELVAAITWSVGSTYYADSVKGRFTISRDNAKNTVYLLMNSLKPEDTAVYYCATDVKNVRYRYRYDYWGQGTQVTVSS	low polyreactivity
QVQLVESGGGLVQAGGSLRLSCAASGRIFWSNAMGWYRQAPGKERELVAAIRNTCSTNYADSVKGRFTISRDNAKNTVYLQMISLKPEDTGVYYCAADRASYFTYAYGYWGQGTQVTVSS	high polyreactivity
QVQLVESGGGLVQAGGSLRLSCAASGRIFWSNAMGWYRQAPGKERELVATISSGGRTYYADSVKGRFTISRDNAKNTVYLQMNSLKPEDTAVYYCNATSGYKHAWRSENGYWGQGTQVTVSS	low polyreactivity
QVQLVESGGGLVQAGGSLRLSCAASGRIFWTYAMGWYRQAPGKERELVAAINSSDGTYYADSVKGRFTISRDNAKNTVYLQMNSLKPEDTAVYYCNADRDALVGYDYDYWGQVTQVTVSS	low polyreactivity
QVQLVESGGGLVQAGGSLRLSCAASGRIFWTYAMGWYSQAPGKERELVASITWSGGSTYYADSVKGRFTISRDNAKNTFYLQMNSLKPEDTAVYYCKTDVLAPYDSGYWGQGTQVTVSS	low polyreactivity
QVQLVESGGGLVQAGGSLRLSCAASGRIFWVNAMGWYIQAPGKERELVAVISRGGSTTYADSVKGRFTISRDNEKNTVYLQMNSLKPEDTAVYYCAADAYSHAFLYYGYDYWGQGTQVTVSS	low polyreactivity
QVQLVESGGGLVQAGGSLRLSCAASGRIFWWYSMGWYRQAPVKERELVAAISTGSRTYYADSVKGRFTISRDNAKNTVFLQMNSLKPEDTAVYYCVADGLYSVSRSSIFEYWGQGTQVTVSS	low polyreactivity
